A short description of series [1]: dual luciferase reporter, HEPM. Particulars: glycan lost; control: MEIS2-WT in shOGT HEPM cells. (In general: Reporter assays use an easily measured gene product as a stand-in for the process of interest.)
The nature of series [2]: CHX chase, immunoblot, endogenous MEIS2 in HEPM. The settings on record: control: DMSO. On the technique in general: Immunoblotting shows a protein as a band on a membrane.
Series [3] in a line: anti-MEIS2 or anti-HA IP, ubiquitin blot. The settings on record: control: DMSO.
A short description of series [4]: Western blot of MEIS2 ± MG132, HEPM. Particulars: glycan lost; control: DMSO.

The source of these data is publication PMC13050799.

B1: MEIS2: S237A (protein)
parent chain: MAQRYDELPHYGGMDGVGVPASMYGDPHAPRPIPPVHHLNHGPPLHATQHYGAHAPHPNVMPASMGSAVNDALKRDKDAIYGHPLFPLLALVFEKCELATCTPREPGVAGGDVCSSDSFNEDIAVFAKQVRAEKPLFSSNPELDNLMIQAIQVLRFHLLELEKVHELCDNFCHRYISCLKGKMPIDLVIDERDGSSKSDHEELSGSSTNLADHNPSSWRDHDDATSTHSAGTPGPSSGGHASQSGDNSSEQGDGLDNSVASPGTGDDDDPDKDKKRQKKRGIFPKVATNIMRAWLFQHLTHPYPSEEQKKQLAQDTGLTILQVNNWFINARRRIVQPMIDQSNRAGFLLDPSVSQGAAYSPEGQPMGSFVLDGQQHMGIRPAGLQSMPGDYVSQGGPMGMSMAQPSYTPPQMTPHPTQLRHGPPMHSYLPSHPHHPAMMMHGGPPTHPGMTMSAQSPTMLNSVDPNVGGQVMDIHAQ
For the protein B1, the “other: transcriptional activation of promoter” value in series [1] is recorded as “decreases”.

B2: MEIS2: Thiamet G (protein)
parent chain: MAQRYDELPHYGGMDGVGVPASMYGDPHAPRPIPPVHHLNHGPPLHATQHYGAHAPHPNVMPASMGSAVNDALKRDKDAIYGHPLFPLLALVFEKCELATCTPREPGVAGGDVCSSDSFNEDIAVFAKQVRAEKPLFSSNPELDNLMIQAIQVLRFHLLELEKVHELCDNFCHRYISCLKGKMPIDLVIDERDGSSKSDHEELSGSSTNLADHNPSSWRDHDDATSTHSAGTPGPSSGGHASQSGDNSSEQGDGLDNSVASPGTGDDDDPDKDKKRQKKRGIFPKVATNIMRAWLFQHLTHPYPSEEQKKQLAQDTGLTILQVNNWFINARRRIVQPMIDQSNRAGFLLDPSVSQGAAYSPEGQPMGSFVLDGQQHMGIRPAGLQSMPGDYVSQGGPMGMSMAQPSYTPPQMTPHPTQLRHGPPMHSYLPSHPHHPAMMMHGGPPTHPGMTMSAQSPTMLNSVDPNVGGQVMDIHAQ
For the protein B2, the degradation_or_half_life entry in series [2] (glycan gained) is given as “increases”. In series [3] (glycan gained), the “other: ubiquitination” value was “decreases”.

B3: MEIS2: OSMI-1 (protein)
parent chain: MAQRYDELPHYGGMDGVGVPASMYGDPHAPRPIPPVHHLNHGPPLHATQHYGAHAPHPNVMPASMGSAVNDALKRDKDAIYGHPLFPLLALVFEKCELATCTPREPGVAGGDVCSSDSFNEDIAVFAKQVRAEKPLFSSNPELDNLMIQAIQVLRFHLLELEKVHELCDNFCHRYISCLKGKMPIDLVIDERDGSSKSDHEELSGSSTNLADHNPSSWRDHDDATSTHSAGTPGPSSGGHASQSGDNSSEQGDGLDNSVASPGTGDDDDPDKDKKRQKKRGIFPKVATNIMRAWLFQHLTHPYPSEEQKKQLAQDTGLTILQVNNWFINARRRIVQPMIDQSNRAGFLLDPSVSQGAAYSPEGQPMGSFVLDGQQHMGIRPAGLQSMPGDYVSQGGPMGMSMAQPSYTPPQMTPHPTQLRHGPPMHSYLPSHPHHPAMMMHGGPPTHPGMTMSAQSPTMLNSVDPNVGGQVMDIHAQ
Regarding B3, the degradation_or_half_life entry in series [2] (glycan lost) is recorded as “decreases”. In addition, in series [4], the expression_or_secretion result is listed as “decreases”. In addition, the “other: ubiquitination” value in series [3] (glycan lost) was “increases”.
